{"source": "patent US20250154284A1", "target": "MASP-2-T1 (aa 1-414) (human) (UniProt O00187)", "assay": "ELISA, antibody titrated on truncated human MASP-2 T1 (aa 1-414)"}
{"substance": "benchmark antibody narsoplimab", "values": [{"measurement": "EC50 (read off the curve)", "result": 0.01, "unit": "µg/mL"}]}
